Reference: US20250186602A1, “HUMANIZED ANTIBODY THAT BONDS TO EVA1 PROTEIN OR FUNCTIONAL FRAGMENT THEREOF, ANTIBODY-DRUG CONJUGATE AND CHIMERIC ANTIGEN RECEPTOR” (CURED INC., priority 2022, published 2025)

T1: hEva1-mouse Fc (human, UniProt O60487 27-154, limits assumed)
T1 construct: SPR analyte; the '1' is probably the first concentration (1 nM); also called hEva1-mouse Fc1 (so in the source); not shown: mouse Fc
T1 sequence: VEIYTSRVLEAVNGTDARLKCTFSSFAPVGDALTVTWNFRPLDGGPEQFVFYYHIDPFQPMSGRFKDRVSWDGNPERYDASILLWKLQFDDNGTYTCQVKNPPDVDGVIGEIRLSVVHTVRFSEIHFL


Key:
hEva1-mouse Fc [1] = biological target: T1, hEva1-mouse Fc; experiment: SPR (BiaCore T200), single-cycle kinetics; antibody captured by anti-human IgG on CM5 chip, hEva1-mouse Fc as analyte
Method: (§1) The dissociation constants and association constants of the humanized antibodies and the like were analyzed by using surface plasmon resonance (SPR, product name: BiaCore T200 (manufactured by GE healthcare)).
Specifically, first, human IgG capture antibodies were immobilized on a CM5 chip by an amine coupling method. […] Then, the kinetics analysis on the anti-Eval antibody and hEva1 was conducted by a single-cycle method using the following measurement conditions.

hEva1-mouse Fc [2] = experiment: Surface plasmon resonance kinetics analysis (BiaCore T200, single-cycle); assay type: binding, human; conditions: SPR, antibody captured 5 nM, analyte hEva1-mouse Fc 1-250 nM, HBS-EP+ pH 7.4
Method: as §1
Specifically, first, human IgG capture antibodies were immobilized on a CM5 chip by an amine coupling method. This immobilization was conducted in both reference cells and active cells. Then, the kinetics analysis on the anti-Eval antibody and hEva1 was conducted by a single-cycle method using the following measurement conditions.
• Sample compartment temperature: 10° C. • Running buffer: HBS-EP+buffer, pH 7.4 • Capturing molecule: Human IgG antibody, reference & active cells • Ligand: Various antibodies 5 nM, active cells only • Analyte: hEva1-mouse Fc1, 5, 25, 125, 250 nM, reference & active cells • Regeneration buffer: 3M MgCl2, reference & active cells • 3 cycles of Blanks (Analyte zero concentration)

Molecule	Kd (hEva1-mouse Fc [1])	koff (hEva1-mouse Fc [1])	kon (hEva1-mouse Fc [1])	ka (hEva1-mouse Fc [2])	kd (hEva1-mouse Fc [2])
humanized B2E5-48 antibody H2-L2 (antibody, human IgG1, V domains shown, Human IgG1 heavy chain and human kappa light chain vectors; made in HEK293T cells; also called B2E5-H2-L2) VH: QVQLVQSGAEVKKPGASVKVSCKASGYTFTNYWMHWVRQAPGQGLEWMGEINPTNGGTDYNEKFQGRVTMTVDKSTSTAYMELSSLRSEDTAVYYCTIYTTALDYWGQGTLVTVSS VL: EIVLTQSPATLSLSPGERATLSCRASSSVGYMYWYQQKPGQAPRPLIYVTSNRATGIPARFSGSGSGTDYTLTISSLEPEDFAVYYCQQWSSNPPTFGQGTKLEIK	467 nM	0.0092 s⁻¹	19700 M⁻¹ s⁻¹	–	–
humanized B2E5-48 antibody H3-L2 (antibody, human IgG1, V domains shown, Human IgG1 heavy chain and human kappa light chain vectors; made in HEK293T cells) VH: QVQLVQSGSELKKPGASVKVSCKASGYTFTNYWMHWVRQAPGQGLEWIGEINPTNGGTDYNEGFTGRFVLSVDKSSSTAYLQISSLKAEDTAVYYCTIYTTALDYWGQGTLVTVSS VL: EIVLTQSPATLSLSPGERATLSCRASSSVGYMYWYQQKPGQAPRPLIYVTSNRATGIPARFSGSGSGTDYTLTISSLEPEDFAVYYCQQWSSNPPTFGQGTKLEIK	787 nM	0.0132 s⁻¹	16800 M⁻¹ s⁻¹	–	–
H2-L4: humanized B2E5-48 IgG1, VH H2 (SEQ ID NO: 13), VL L4 (SEQ ID NO: 8) (antibody, V domains shown, Variable Region of Heavy Chain 2 (Humanized B2E5-48); Variable Region of Light Chain 4 (Humanized B2E5-48)) VH: QVQLVQSGAEVKKPGASVKVSCKASGYTFTNYWMHWVRQAPGQGLEWMGEINPTNGGTDYNEKFQGRVTMTVDKSTSTAYMELSSLRSEDTAVYYCTIYTTALDYWGQGTLVTVSS VL: DIQLTQSPSFLSASVGDRVTITCRASSSVGYMYWYQQKPGKAPKPLIYVTSNLASGVPSRFSGSGSGTEYTLTISSLQPEDFATYYCQQWSSNPPTFGQGTKLEIK	–	–	–	17200 M⁻¹ s⁻¹	0.009101 s⁻¹
H1-L4: humanized B2E5-48 IgG1, VH H1 (SEQ ID NO: 15), VL L4 (SEQ ID NO: 8) (antibody, V domains shown, Variable Region of Heavy Chain 1 (Humanized B2E5-48); Variable Region of Light Chain 4 (Humanized B2E5-48)) VH: QVQLVQSGAEVKKPGASVKVSCKASGYTFTNYWMHWVRQAPGQGLEWIGEINPTNGGTDYNEKFQGRVTLTVDKSSSTAYMELSSLRSEDTAVYYCTIYTTALDYWGQGTLVTVSS VL: DIQLTQSPSFLSASVGDRVTITCRASSSVGYMYWYQQKPGKAPKPLIYVTSNLASGVPSRFSGSGSGTEYTLTISSLQPEDFATYYCQQWSSNPPTFGQGTKLEIK	–	–	–	17470 M⁻¹ s⁻¹	0.009313 s⁻¹
H3-L2: humanized B2E5-48 IgG1, VH H3 (SEQ ID NO: 16), VL L2 (SEQ ID NO: 7) (antibody, V domains shown, Variable Region of Heavy Chain 3 (Humanized B2E5-48); Variable Region of Light Chain 2 (Humanized B2E5-48)) VH: QVQLVQSGSELKKPGASVKVSCKASGYTFTNYWMHWVRQAPGQGLEWIGEINPTNGGTDYNEGFTGRFVLSVDKSSSTAYLQISSLKAEDTAVYYCTIYTTALDYWGQGTLVTVSS VL: EIVLTQSPATLSLSPGERATLSCRASSSVGYMYWYQQKPGQAPRPLIYVTSNRATGIPARFSGSGSGTDYTLTISSLEPEDFAVYYCQQWSSNPPTFGQGTKLEIK	–	–	–	16770 M⁻¹ s⁻¹	0.0132 s⁻¹
H2-L3: humanized B2E5-48 IgG1, VH H2 (SEQ ID NO: 13), VL L3 (SEQ ID NO: 10) (antibody, V domains shown, Variable Region of Heavy Chain 2 (Humanized B2E5-48); Variable Region of Light Chain 3 (Humanized B2E5-48)) VH: QVQLVQSGAEVKKPGASVKVSCKASGYTFTNYWMHWVRQAPGQGLEWMGEINPTNGGTDYNEKFQGRVTMTVDKSTSTAYMELSSLRSEDTAVYYCTIYTTALDYWGQGTLVTVSS VL: QIQLTQSPSFLSASVGDRVTITCRASSSVGYMYWYQQKPGKAPKPLIYVTSNLASGVPSRFSGSGSGTEYTLTISSLQPEDFATYYCQQWSSNPPTFGQGTKLEIK	–	–	–	20710 M⁻¹ s⁻¹	0.008858 s⁻¹
humanized B2E5-48 antibody H2-L3 (antibody, human IgG1, V domains shown, Human IgG1 heavy chain and human kappa light chain vectors; made in HEK293T cells) VH: QVQLVQSGAEVKKPGASVKVSCKASGYTFTNYWMHWVRQAPGQGLEWMGEINPTNGGTDYNEKFQGRVTMTVDKSTSTAYMELSSLRSEDTAVYYCTIYTTALDYWGQGTLVTVSS VL: QIQLTQSPSFLSASVGDRVTITCRASSSVGYMYWYQQKPGKAPKPLIYVTSNLASGVPSRFSGSGSGTEYTLTISSLQPEDFATYYCQQWSSNPPTFGQGTKLEIK	428 nM	0.00886 s⁻¹	20700 M⁻¹ s⁻¹	–	–
humanized B2E5-48 antibody H2-L4 (antibody, human IgG1, V domains shown, Human IgG1 heavy chain and human kappa light chain vectors; made in HEK293T cells) VH: QVQLVQSGAEVKKPGASVKVSCKASGYTFTNYWMHWVRQAPGQGLEWMGEINPTNGGTDYNEKFQGRVTMTVDKSTSTAYMELSSLRSEDTAVYYCTIYTTALDYWGQGTLVTVSS VL: DIQLTQSPSFLSASVGDRVTITCRASSSVGYMYWYQQKPGKAPKPLIYVTSNLASGVPSRFSGSGSGTEYTLTISSLQPEDFATYYCQQWSSNPPTFGQGTKLEIK	529 nM	0.0091 s⁻¹	17200 M⁻¹ s⁻¹	–	–
humanized B2E5-48 antibody H4-L2 (antibody, human IgG1, V domains shown, Human IgG1 heavy chain and human kappa light chain vectors; made in HEK293T cells) VH: QVQLVQSGSELKKPGASVKVSCKASGYTFTNYWMHWVRQAPGQGLEWMGEINPTNGGTDYNEGFTGRFVFSVDKSVSTAYLQISSLKAEDTAVYYCTIYTTALDYWGQGTLVTVSS VL: EIVLTQSPATLSLSPGERATLSCRASSSVGYMYWYQQKPGQAPRPLIYVTSNRATGIPARFSGSGSGTDYTLTISSLEPEDFAVYYCQQWSSNPPTFGQGTKLEIK	768 nM	0.0146 s⁻¹	19000 M⁻¹ s⁻¹	–	–
humanized B2E5-48 antibody H3-L4 (antibody, human IgG1, V domains shown, Human IgG1 heavy chain and human kappa light chain vectors; made in HEK293T cells) VH: QVQLVQSGSELKKPGASVKVSCKASGYTFTNYWMHWVRQAPGQGLEWIGEINPTNGGTDYNEGFTGRFVLSVDKSSSTAYLQISSLKAEDTAVYYCTIYTTALDYWGQGTLVTVSS VL: DIQLTQSPSFLSASVGDRVTITCRASSSVGYMYWYQQKPGKAPKPLIYVTSNLASGVPSRFSGSGSGTEYTLTISSLQPEDFATYYCQQWSSNPPTFGQGTKLEIK	873 nM	0.0138 s⁻¹	15800 M⁻¹ s⁻¹	–	–
H3-L3: humanized B2E5-48 IgG1, VH H3 (SEQ ID NO: 16), VL L3 (SEQ ID NO: 10) (antibody, V domains shown, Variable Region of Heavy Chain 3 (Humanized B2E5-48); Variable Region of Light Chain 3 (Humanized B2E5-48)) VH: QVQLVQSGSELKKPGASVKVSCKASGYTFTNYWMHWVRQAPGQGLEWIGEINPTNGGTDYNEGFTGRFVLSVDKSSSTAYLQISSLKAEDTAVYYCTIYTTALDYWGQGTLVTVSS VL: QIQLTQSPSFLSASVGDRVTITCRASSSVGYMYWYQQKPGKAPKPLIYVTSNLASGVPSRFSGSGSGTEYTLTISSLQPEDFATYYCQQWSSNPPTFGQGTKLEIK	–	–	–	15010 M⁻¹ s⁻¹	0.01253 s⁻¹
humanized B2E5-48 antibody H4-L4 (antibody, human IgG1, V domains shown, Human IgG1 heavy chain and human kappa light chain vectors; made in HEK293T cells) VH: QVQLVQSGSELKKPGASVKVSCKASGYTFTNYWMHWVRQAPGQGLEWMGEINPTNGGTDYNEGFTGRFVFSVDKSVSTAYLQISSLKAEDTAVYYCTIYTTALDYWGQGTLVTVSS VL: DIQLTQSPSFLSASVGDRVTITCRASSSVGYMYWYQQKPGKAPKPLIYVTSNLASGVPSRFSGSGSGTEYTLTISSLQPEDFATYYCQQWSSNPPTFGQGTKLEIK	994 nM	0.0152 s⁻¹	15300 M⁻¹ s⁻¹	–	–
humanized B2E5-48 antibody H1-L4 (antibody, human IgG1, V domains shown, Human IgG1 heavy chain and human kappa light chain vectors; made in HEK293T cells) VH: QVQLVQSGAEVKKPGASVKVSCKASGYTFTNYWMHWVRQAPGQGLEWIGEINPTNGGTDYNEKFQGRVTLTVDKSSSTAYMELSSLRSEDTAVYYCTIYTTALDYWGQGTLVTVSS VL: DIQLTQSPSFLSASVGDRVTITCRASSSVGYMYWYQQKPGKAPKPLIYVTSNLASGVPSRFSGSGSGTEYTLTISSLQPEDFATYYCQQWSSNPPTFGQGTKLEIK	533 nM	0.00931 s⁻¹	17500 M⁻¹ s⁻¹	–	–
humanized B2E5-48 antibody H3-L3 (antibody, human IgG1, V domains shown, Human IgG1 heavy chain and human kappa light chain vectors; made in HEK293T cells) VH: QVQLVQSGSELKKPGASVKVSCKASGYTFTNYWMHWVRQAPGQGLEWIGEINPTNGGTDYNEGFTGRFVLSVDKSSSTAYLQISSLKAEDTAVYYCTIYTTALDYWGQGTLVTVSS VL: QIQLTQSPSFLSASVGDRVTITCRASSSVGYMYWYQQKPGKAPKPLIYVTSNLASGVPSRFSGSGSGTEYTLTISSLQPEDFATYYCQQWSSNPPTFGQGTKLEIK	835 nM	0.0125 s⁻¹	15000 M⁻¹ s⁻¹	–	–
humanized B2E5-48 antibody H4-L3 (antibody, human IgG1, V domains shown, Human IgG1 heavy chain and human kappa light chain vectors; made in HEK293T cells) VH: QVQLVQSGSELKKPGASVKVSCKASGYTFTNYWMHWVRQAPGQGLEWMGEINPTNGGTDYNEGFTGRFVFSVDKSVSTAYLQISSLKAEDTAVYYCTIYTTALDYWGQGTLVTVSS VL: QIQLTQSPSFLSASVGDRVTITCRASSSVGYMYWYQQKPGKAPKPLIYVTSNLASGVPSRFSGSGSGTEYTLTISSLQPEDFATYYCQQWSSNPPTFGQGTKLEIK	877 nM	0.0136 s⁻¹	15500 M⁻¹ s⁻¹	–	–
